# Reference: the supplement of paper PMC9112550, “Optimization of the antimicrobial peptide Bac7 by deep mutational scanning” (BMC Biology, 2022)
# Test system: Escherichia coli TOP10
# Experiment: shrunken log2 fold change of peptide-encoding DNA abundance (4.5 h post-induction vs induction); higher = less antimicrobial activity (less host growth inhibition)
# Conditions: time post-induction: 4.5 h; library: site-saturation at positions 5, 18, 19, 20
# 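Note: peptides expressed intracellularly from a pBAD plasmid library in pooled LB shake-flask culture, induced with 0.3% L-arabinose, DNA abundance read by NGS, three biological replicates, DESeq2 with apeglm shrinkage.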
row,Sequence,shrunken log2 fold change
1,RRIRVRPPRLPRPRPRPSCSPRP,-0.338
2,RRIRVRPPRLPRPRPRPSDIPRP,-0.965
3,RRIRVRPPRLPRPRPRPSDSPRP,-0.4
4,RRIRVRPPRLPRPRPRPSGEPRP,0.0818
5,RRIRVRPPRLPRPRPRPSGIPRP,-0.931
6,RRIRVRPPRLPRPRPRPSIAPRP,-0.0218
7,RRIRVRPPRLPRPRPRPSIKPRP,-0.552
8,RRIRVRPPRLPRPRPRPSIVPRP,-0.364
9,RRIRVRPPRLPRPRPRPSKHPRP,-0.538
10,RRIRVRPPRLPRPRPRPSKKPRP,-0.0165
11,RRIRVRPPRLPRPRPRPSKTPRP,-0.61
12,RRIRVRPPRLPRPRPRPSLLPRP,-0.23
13,RRIRVRPPRLPRPRPRPSLVPRP,0.974
14,RRIRVRPPRLPRPRPRPSMQPRP,-0.223
15,RRIRVRPPRLPRPRPRPSMSPRP,-0.147
16,RRIRVRPPRLPRPRPRPSNRPRP,-0.147
17,RRIRVRPPRLPRPRPRPSRFPRP,-0.0691
18,RRIRVRPPRLPRPRPRPSSAPRP,0.0552
19,RRIRVRPPRLPRPRPRPSSTPRP,-0.398
20,RRIRVRPPRLPRPRPRPSVVPRP,0.00363
21,RRIRVRPPRLPRPRPRPSWAPRP,0.0598
22,RRIRVRPPRLPRPRPRPSWPPRP,0.493

row,Sequence,shrunken log2 fold change
1,RRIRVRPPRLPRPRPRPSYDPRP,-0.576
2,RRIRVRPPRLPRPRPRPSYGPRP,-0.369
3,RRIRVRPPRLPRPRPRPTAQPRP,-0.113
4,RRIRVRPPRLPRPRPRPTCSPRP,0.19
5,RRIRVRPPRLPRPRPRPTEEPRP,0.0849
6,RRIRVRPPRLPRPRPRPTEQPRP,0.0304
7,RRIRVRPPRLPRPRPRPTHAPRP,0.285
8,RRIRVRPPRLPRPRPRPTHKPRP,0.333
9,RRIRVRPPRLPRPRPRPTILPRP,-0.308
10,RRIRVRPPRLPRPRPRPTKWPRP,0.0808
11,RRIRVRPPRLPRPRPRPTLQPRP,0.0594
12,RRIRVRPPRLPRPRPRPTMMPRP,-0.494
13,RRIRVRPPRLPRPRPRPTMSPRP,-0.194
14,RRIRVRPPRLPRPRPRPTNDPRP,0.0333
15,RRIRVRPPRLPRPRPRPTPCPRP,-0.147
16,RRIRVRPPRLPRPRPRPTQLPRP,0.504
17,RRIRVRPPRLPRPRPRPTTRPRP,0.293
18,RRIRVRPPRLPRPRPRPTVEPRP,0.195
19,RRIRVRPPRLPRPRPRPTVNPRP,-0.171
20,RRIRVRPPRLPRPRPRPTYIPRP,-0.51
21,RRIRVRPPRLPRPRPRPTYSPRP,-0.0431
22,RRIRVRPPRLPRPRPRPVAMPRP,0.0876

row,Sequence,shrunken log2 fold change
1,RRIRVRPPRLPRPRPRPVEDPRP,-0.378
2,RRIRVRPPRLPRPRPRPVEGPRP,0.112
3,RRIRVRPPRLPRPRPRPVERPRP,0.0358
4,RRIRVRPPRLPRPRPRPVFMPRP,-0.113
5,RRIRVRPPRLPRPRPRPVGMPRP,-0.0289
6,RRIRVRPPRLPRPRPRPVGNPRP,-0.129
7,RRIRVRPPRLPRPRPRPVIAPRP,-0.0291
8,RRIRVRPPRLPRPRPRPVIMPRP,-0.227
9,RRIRVRPPRLPRPRPRPVIRPRP,-0.375
10,RRIRVRPPRLPRPRPRPVLSPRP,-0.11
11,RRIRVRPPRLPRPRPRPVNDPRP,-0.201
12,RRIRVRPPRLPRPRPRPVNGPRP,0.158
13,RRIRVRPPRLPRPRPRPVPAPRP,0.391
14,RRIRVRPPRLPRPRPRPVPPPRP,0.27
15,RRIRVRPPRLPRPRPRPVPVPRP,0.0573
16,RRIRVRPPRLPRPRPRPVQLPRP,0.258
17,RRIRVRPPRLPRPRPRPVQPPRP,0.114
18,RRIRVRPPRLPRPRPRPVRNPRP,0.105
19,RRIRVRPPRLPRPRPRPVSIPRP,0.126
20,RRIRVRPPRLPRPRPRPVSNPRP,-0.0653
21,RRIRVRPPRLPRPRPRPVTAPRP,-0.0594
22,RRIRVRPPRLPRPRPRPVTDPRP,-0.171

row,Sequence,shrunken log2 fold change
1,RRIRVRPPRLPRPRPRPWFEPRP,-0.313
2,RRIRVRPPRLPRPRPRPWGPPRP,-0.164
3,RRIRVRPPRLPRPRPRPWGTPRP,-0.402
4,RRIRVRPPRLPRPRPRPWHVPRP,-0.0616
5,RRIRVRPPRLPRPRPRPWIDPRP,-0.134
6,RRIRVRPPRLPRPRPRPWIHPRP,-0.349
7,RRIRVRPPRLPRPRPRPWIRPRP,-0.151
8,RRIRVRPPRLPRPRPRPWKFPRP,-0.00968
9,RRIRVRPPRLPRPRPRPWKYPRP,-0.0321
10,RRIRVRPPRLPRPRPRPWLKPRP,0.151
11,RRIRVRPPRLPRPRPRPWLWPRP,0.475
12,RRIRVRPPRLPRPRPRPWPHPRP,-0.103
13,RRIRVRPPRLPRPRPRPWQAPRP,-0.0138
14,RRIRVRPPRLPRPRPRPWQWPRP,-0.0592
15,RRIRVRPPRLPRPRPRPWRMPRP,0.077
16,RRIRVRPPRLPRPRPRPWSLPRP,-0.0384
17,RRIRVRPPRLPRPRPRPWSYPRP,-0.0283
18,RRIRVRPPRLPRPRPRPWTPPRP,0.158
19,RRIRVRPPRLPRPRPRPWVIPRP,-0.43
20,RRIRVRPPRLPRPRPRPWVTPRP,-0.375
21,RRIRVRPPRLPRPRPRPWVVPRP,-0.0754
22,RRIRVRPPRLPRPRPRPWVWPRP,0.292

row,Sequence,shrunken log2 fold change
1,RRIRVRPPRLPRPRPRPWWKPRP,0.0375
2,RRIRVRPPRLPRPRPRPWWSPRP,0.0392
3,RRIRVRPPRLPRPRPRPWYIPRP,-0.0193
4,RRIRVRPPRLPRPRPRPYAFPRP,-0.0621
5,RRIRVRPPRLPRPRPRPYDWPRP,-0.206
6,RRIRVRPPRLPRPRPRPYEAPRP,-0.157
7,RRIRVRPPRLPRPRPRPYENPRP,-0.293
8,RRIRVRPPRLPRPRPRPYFHPRP,-0.738
9,RRIRVRPPRLPRPRPRPYFPPRP,0.109
10,RRIRVRPPRLPRPRPRPYFSPRP,-0.267
11,RRIRVRPPRLPRPRPRPYGVPRP,-0.153
12,RRIRVRPPRLPRPRPRPYKPPRP,-0.757
13,RRIRVRPPRLPRPRPRPYNFPRP,-0.577
14,RRIRVRPPRLPRPRPRPYNTPRP,-0.326
15,RRIRVRPPRLPRPRPRPYPRPRP,0.0644
16,RRIRVRPPRLPRPRPRPYQSPRP,-0.0308
17,RRIRVRPPRLPRPRPRPYQTPRP,-0.0531
18,RRIRVRPPRLPRPRPRPYQYPRP,-0.0296
19,RRIRVRPPRLPRPRPRPYSGPRP,-0.00858
20,RRIRVRPPRLPRPRPRPYTFPRP,-0.314
21,RRIRVRPPRLPRPRPRPYTTPRP,-0.721
